Legend:
Test in all cases: malachite green Pi release
Assay type in all cases: biochemical, Arabidopsis thaliana
Conditions in all cases: pH 7.2, 30 °C, 100 mM KCl, 0.8 mM MgCl2
[1] = substrate: O=P(O)(O)O[C@H]1[C@@H](OP(=O)(O)O)[C@H](OP(=O)(O)O)[C@@H](OP(=O)(O)OP(=O)(O)O)[C@H](OP(=O)(O)O)[C@H]1OP(=O)(O)O
[2] = substrate: O=P(O)(O)O[C@@H]1[C@@H](OP(=O)(O)OP(=O)(O)O)[C@H](OP(=O)(O)O)[C@@H](OP(=O)(O)O)[C@@H](O)[C@H]1OP(=O)(O)O
[3] = substrate: O=P(O)(O)O[C@@H]1[C@@H](OP(=O)(O)O)[C@H](OP(=O)(O)OP(=O)(O)O)[C@@H](OP(=O)(O)O)[C@H](OP(=O)(O)OP(=O)(O)O)[C@@H]1OP(=O)(O)O

B1: AtPFA-DSP1 (full-length) (Arabidopsis thaliana) (protein)
chain: MKLVEKTTTTEQDNGEDFCRTIIEVSEVNRNVFQAPGGEADPFRVVSGEELHLIPPLNFSMVDNGIFRSGFPDSANFSFLQTLGLRSIIYLCPEPYPESNLQFLKSNGIRLFQFGIEGNKEPFVNIPDHKIRMALKVLLDEKNHPVLIHCKRGKHRTGCLVGCLRKLQKWCLTSIFDEYQRFAAAKARVSDQRFMEIFDVSSFSHIPMSFSCSIR
notes: full-length (codon-optimized cDNA, Genscript); pDest-566, N-terminal 6xHis-MBP tag cut with TEV protease; E. coli
B1 gave a Km [1] of 60 µM, a Km [2] of 78 µM and a Km [3] of 44 µM.

Reference: article PMC9038691, “A structural exposé of noncanonical molecular reactivity within the protein tyrosine phosphatase WPD loop” (Nature communications, 2022)
